Results taken from PMC6318249, “DNA Binding and Phosphorylation Regulate the Core Structure of the NF-κB p50 Transcription Factor” (Journal of the American Society for Mass Spectrometry, 2018).

What was measured:
[1] = molecular target: Murine NF-κB p50 (39-364) S248D (murine) (UniProt P25799); assay: native MS; native IM-MS of p50 (39-364) WT and Ser to Asp variants, no DNA; 100 mM NH4OAc, typically 5 μM; percentage peak areas of monomer and dimer by multi-Gaussian fitting
[2] = molecular target: p50 (35-381, Enzo Scientific) 35-381 (UniProt P19838); assay: native nESI-MS, monomer:dimer, with κB DNA; settings: reference: non-phosphorylated p50 plus DNA; sites S328,S337
[3] = molecular target: Murine NF-κB p50 (39-364) S337D (murine) (UniProt P25799); assay: native MS; native IM-MS of p50 (39-364) WT and Ser to Asp variants, no DNA; 100 mM NH4OAc, typically 5 μM; percentage peak areas of monomer and dimer by multi-Gaussian fitting
[4] = molecular target: Murine NF-κB p50 (39-364) S337D (murine) (UniProt P25799); assay: SEC; size exclusion chromatography of p50 (39-364); monomer measured by protein staining and densitometry
[5] = molecular target: Murine NF-κB p50 (39-364) S65D (murine) (UniProt P25799); assay: native MS; native IM-MS of p50 (39-364) WT and Ser to Asp variants, no DNA; 100 mM NH4OAc, typically 5 μM; percentage peak areas of monomer and dimer by multi-Gaussian fitting
[6] = molecular target: Murine NF-κB p50 (39-364) wild-type (murine) (UniProt P25799); assay: as above
[7] = molecular target: p50 (35-381, Enzo Scientific) 35-381 (UniProt P19838); assay: native nESI-MS, monomer:dimer ratio, no DNA; settings: reference: p50 before phosphorylation; sites S328,S337
[8] = molecular target: Murine NF-κB p50 (39-364) S242D (murine) (UniProt P25799); assay: native MS; native IM-MS of p50 (39-364) WT and Ser to Asp variants, no DNA; 100 mM NH4OAc, typically 5 μM; percentage peak areas of monomer and dimer by multi-Gaussian fitting
[9] = molecular target: the molecule itself; assay: native MS; nano-ESI native MS of p50 (35-381) before and after in vitro phosphorylation with PKAc or Chk1; 100 mM NH4OAc, typically 5 μM; without and with the κB DNA oligomer; monomer and dimer charge states compared
p50 S242D = p50 S242D (Mus musculus, UniProt P25799 39-364, S240D); assay: native MS titration; KD: 3 uM p50 with 0.2-6 uM DNA in 300 mM NH4OAc, 5 min, room temperature, 10 uL, pH not stated; native nESI-(IM-)MS; settings: protein: recombinant; tags: His6-MBP removed by 3C protease; chain copies: 2; blunt; strand is self-complementary
p50 S248D = p50 S248D (Mus musculus, UniProt P25799 39-364, S246D); assay: as above; settings: protein: recombinant; tags: His6-MBP removed by 3C protease; chain copies: 2; blunt; strand is self-complementary
p50 WT = p50 WT (Mus musculus, UniProt P25799 39-364); assay: as above; settings: protein: recombinant; tags: His6-MBP removed by 3C protease; chain copies: 2; blunt; strand is self-complementary
p50 S337D = p50 S337D (Mus musculus, UniProt P25799 39-364, S335D); assay: as above; settings: protein: recombinant; tags: His6-MBP removed by 3C protease; chain copies: 2; blunt; strand is self-complementary
p50 S65D = p50 S65D (Mus musculus, UniProt P25799 39-364, S63D); assay: as above; settings: protein: recombinant; tags: His6-MBP removed by 3C protease; chain copies: 2; blunt; strand is self-complementary
Sequence of p50 S65D (P25799 39-364 S63D): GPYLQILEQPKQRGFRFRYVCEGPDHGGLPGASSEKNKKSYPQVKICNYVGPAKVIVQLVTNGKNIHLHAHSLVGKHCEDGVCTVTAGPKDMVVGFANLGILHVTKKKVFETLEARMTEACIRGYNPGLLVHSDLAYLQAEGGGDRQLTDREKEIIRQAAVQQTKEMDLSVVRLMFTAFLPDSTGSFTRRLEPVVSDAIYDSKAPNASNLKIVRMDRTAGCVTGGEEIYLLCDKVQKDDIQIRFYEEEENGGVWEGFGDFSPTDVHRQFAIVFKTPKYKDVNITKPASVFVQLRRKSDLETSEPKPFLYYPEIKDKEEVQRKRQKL

Sequence of p50 WT (P25799 39-364): as the sequence (P25799 39-364 S63D) above, with D25S counted along it
Sequence of p50 S248D (P25799 39-364 S246D): as the sequence (P25799 39-364 S63D) above, with D25S, S208D counted along it
Sequence of p50 S242D (P25799 39-364 S240D): as the sequence (P25799 39-364 S63D) above, with D25S, S202D counted along it
Sequence of p50 S337D (P25799 39-364 S335D): as the sequence (P25799 39-364 S63D) above, with D25S, S297D counted along it

Work on “Murine NF-κB p50 (39-364) S248D (from UniProt P25799 39-364) (domain or fragment)” yielded a percentage peak area of dimer [1] of 94.2%, a percentage peak area of monomer [1] of 5.8% and a stoichiometry N [1] of 2.

For “p50 (35-381, Enzo Scientific) 35-381 (from UniProt P19838) PKAc-phosphorylated p50 plus DNA”, the “binding against the reference” value [2] was “same”.

With “Murine NF-κB p50 (39-364) S337D (from UniProt P25799 39-364) (domain or fragment)” the percentage peak area of dimer [3] was 74.8%, the percentage peak area of monomer [3] was 25.2% and the stoichiometry N [3] was 2. The fold increase in monomer relative to WT p50 [4] was 5 fold.

In the case of “Murine NF-κB p50 (39-364) S65D (from UniProt P25799 39-364) (domain or fragment)”, the percentage peak area of dimer [5] is reported as 90.6%, the percentage peak area of monomer [5] is reported as 9.4% and the stoichiometry N [5] is reported as 2.

“Murine NF-κB p50 (39-364) wild-type (from UniProt P25799 39-364) (domain or fragment)” gave a percentage peak area of dimer [6] of 89.5%, a percentage peak area of monomer [6] of 10.5% and a stoichiometry N [6] of 2.

In the case of “p50 (35-381, Enzo Scientific) 35-381 (from UniProt P19838) PKAc-phosphorylated p50”, the “binding against the reference” value [7] is reported as “weaker”.

In the case of “Murine NF-κB p50 (39-364) S242D (from UniProt P25799 39-364) (domain or fragment)”, the percentage peak area of dimer [8] is reported as 87.6%, the percentage peak area of monomer [8] is reported as 12.4% and the stoichiometry N [8] is reported as 2.

B1: NF-κB p50 (35-381), non-phosphorylated (domain or fragment, UniProt P19838 35-381, looked up)
chain: MALPTDGPYLQILEQPKQRGFRFRYVCEGPSHGGLPGASSEKNKKSYPQVKICNYVGPAKVIVQLVTNGKNIHLHAHSLVGKHCEDGICTVTAGPKDMVVGFANLGILHVTKKKVFETLEARMTEACIRGYNPGLLVHPDLAYLQAEGGGDRQLGDREKELIRQAALQQTKEMDLSVVRLMFTAFLPDSTGSFTRRLEPVVSDAIYDSKAPNASNLKIVRMDRTAGCVTGGEEIYLLCDKVQKDDIQIRFYEEEENGGVWEGFGDFSPTDVHRQFAIVFKTPKYKDINITKPASVFVQLRRKSDLETSEPKPFLYYPEIKDKEEVQRKRQKLMPNFSDSFGGGSGAG
notes: NF-κB p50, the proteolytic product of p105 (NF-κB1), residues 35-381; also called recombinant p50 (35-381); source: bought: Enzo Scientific
For B1, the “stoichiometry N” value [9] was 2.

B2: kB DNA oligomer (KD determination) (dsDNA)
DNA 1: CCCCCGGGGGCCCCCGGGGG
DNA 2: CCCCCGGGGGCCCCCGGGGG
With B2 the Kd (p50 S242D) was 424 ± 78 nM, the Kd (p50 S248D) was 112 ± 11 nM and the Kd (p50 WT) was 37 ± 7 nM. For the same molecule, the Kd (p50 S337D) was 111 ± 15 nM and the Kd (p50 S65D) was 140 ± 16 nM.
